The data set deals with the molecule itself. Briefly: thioflavin T fluorescence; self-assembly during agitation (air:water interface), 50 μg/mL protein, 20 μM ThT, multicomponent buffer pH 8.5 with 1 M NaCl (SC16ΔN also at pH 5.5-8.5 with 10 mM-1 M NaCl), 6 replicates.

B1: SC16 with 13 residues from the N-terminal tail removed (residues 31Lys-114Leu of SC16) (domain or fragment, Schizophyllum commune, UniProt D8QCG9 31-114, looked up)
chain: KSCSSGPVYCCNKTEDHLDKGTTALLGLLNIKIGDLKDLVGLNCSPLSVIGVGGNSCSAQTVCCTNTYQHGLVNVGCTPINIGL
notes: class IB hydrophobin SC16, product of the hyd1 gene of Schizophyllum commune, NCBI ID EFI94929, residues 31Lys-114Leu; Expressed as H6-GB1-SC16ΔN with a thrombin site; also called SC16ΔN; not shown: His6, N-terminal, cleaved; B1 domain of protein G (GB1), N-terminal, cleaved
For the protein B1, the binding result is recorded as “binds”.

B2: SC16 with the N-terminal signal sequence removed (18Thr-114Leu of the hyd1 gene of S. commune) (natural protein, Schizophyllum commune, UniProt D8QCG9 18-114, looked up)
chain: TAVPRDVNGGTPPKSCSSGPVYCCNKTEDHLDKGTTALLGLLNIKIGDLKDLVGLNCSPLSVIGVGGNSCSAQTVCCTNTYQHGLVNVGCTPINIGL
notes: Expressed as H6-GB1-SC16 with a thrombin site; also called hydrophobin SC16; not shown: His6, N-terminal, cleaved; B1 domain of protein G (GB1), N-terminal, cleaved
Take B2: the binding result is given as “binds”.

The values above are taken from publication PMC8748815, “The N-terminal tail of the hydrophobin SC16 is not required for rodlet formation” (Scientific Reports, 2022).
